Measured values from EP4574169A1.
Read-outs that look alike come from different tables or passages of the source.

Legend:
ACE2 [1] = target: ACE2
ACE2 [2] = experiment: ACE2 binding detection ELISA (ACE2 on solid phase, detection with anti-spikeRBD antibody); concentrated supernatant of virus-infected Vero cells
ACE2 [3] = experiment: ratio of ACE2 binding ELISA to Spike RBD detection ELISA; concentrated supernatant of virus-infected Vero cells

Row | Substance | ACE2 bind (ACE2 [1]) | ACE2 bind/ Spike RBD (ACE2 [1]) | ACE2 bind (ACE2 [2]) | ACE2 bind/ Spike RBD (ACE2 [3])
1 | Cov2STH (polypeptide C: mu-phosphatase leader, extracellular region (ECD) of the spike protein, PP m (from UniProt P0DTC2 16-1213) | 202 ng/mL | 2.3 | 19.8 ng/mL | 6.5
2 | Cov2SPPF (polypeptide B: structure of A with further deletion of the furin cleavage site, R683A R685 (from UniProt P0DTC2 14-1273) | 7 ng/mL | 0.076 | 0.5 ng/mL | 0.094
